In patent US20230366033A1, “METHODS FOR TREATING CANCERS WITH INHIBITORS TARGETING THE ROLE OF GRB2 IN DNA REPAIR” (Board of Regents, The University of Texas System, priority 2020, published 2023):
Read-outs that look alike come from different tables or passages of the source. Where no end group is shown, it is not given here. [ ]: non-standard residue; d: D form. pY = N[C@@H](Cc1ccc(OP(=O)(O)O)cc1)C(=O)O

Assays:
[1] = molecular target: T1, RPA70 N-terminal domain (residue 1-120) (Homo sapiens, UniProt P27694); assay: Microscale thermophoresis (MST) binding; settings: 50 nM Atto488-labelled RPA70N
T1 construct: 6xHis; made in house
T1 sequence (P27694 1-120): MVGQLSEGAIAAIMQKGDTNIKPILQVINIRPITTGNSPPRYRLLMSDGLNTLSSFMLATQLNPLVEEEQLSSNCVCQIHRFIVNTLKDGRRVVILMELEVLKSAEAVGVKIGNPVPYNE
Text: FIGS. 3A-3I. Identification of GRB2 binding interfaces on MRE11, RPA70 and H2AX. (FIG. 3A) Schematic DDR binding-motifs (circles) on GRB2 within its domain architecture. Approximate non-canonical binding motifs are shown. (FIG. 3B) GST-SH domains pulldown of HEK293T cell-extracts followed by immunoblotting with indicated antibodies. (FIG. 3C) GST pulldown of bacterially expressed and purified human MRE11 with indicated GRB2 SH-domains. (FIG. 3D) OB1 fold binding motifs sequence alignment (top). MST isotherms of 50 nM Atto488-labelled RPA70 N-terminal domain (residue 1-120) binding to titrating concentrations (2 nM to 20 μM) of GRB2 or GRB2-derived OB1 peptide. The binding affinity (Kd) is shown. (FIG. 3E) Strep-Tactin precipitation of WT and DF/AA mutant from HEK293T cells that were either untreated (normal) or immediately after IR treated (5 Gy) and lysed, followed by western blot detection with the indicated antibodies. (FIG. 3F) MST-binding isotherms of an Atto488-labelled GRB2-SH2 domain (100 nM) binding to titrating concentrations (30 nM to 500 μM) of synthetic peptides derived from indicated proteins. […]
(§1) Microscale thermophoresis. […] The Kd values were measured using the Monolith NT.115 system (Nano Temper). […] Labeling efficiency was determined to be 1:1 (protein:dye) by measuring the absorbance at 280 and 488 nm. […]

GRB2-SH2 domain = molecular target: T2, GRB2-SH2 domain (Homo sapiens, UniProt P62993); assay: Microscale thermophoresis (MST) binding of synthetic peptides
T2 construct: 6xHis; made in house
T2 sequence (P62993 60-152 limits assumed): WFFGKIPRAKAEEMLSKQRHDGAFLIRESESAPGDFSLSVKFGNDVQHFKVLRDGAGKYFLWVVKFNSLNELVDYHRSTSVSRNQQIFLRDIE
Text: (§2) FIGS. 3A-3I. Identification of GRB2 binding interfaces on MRE11, RPA70 and H2AX. (FIG. 3A) Schematic DDR binding-motifs (circles) on GRB2 within its domain architecture. Approximate non-canonical binding motifs are shown. (FIG. 3B) GST-SH domains pulldown of HEK293T cell-extracts followed by immunoblotting with indicated antibodies. (FIG. 3C) GST pulldown of bacterially expressed and purified human MRE11 with indicated GRB2 SH-domains. (FIG. 3D) OB1 fold binding motifs sequence alignment (top). MST isotherms of 50 nM Atto488-labelled RPA70 N-terminal domain (residue 1-120) binding to titrating concentrations (2 nM to 20 μM) of GRB2 or GRB2-derived OB1 peptide. The binding affinity (Kd) is shown. (FIG. 3E) Strep-Tactin precipitation of WT and DF/AA mutant from HEK293T cells that were either untreated (normal) or immediately after IR treated (5 Gy) and lysed, followed by western blot detection with the indicated antibodies. (FIG. 3F) MST-binding isotherms of an Atto488-labelled GRB2-SH2 domain (100 nM) binding to titrating concentrations (30 nM to 500 μM) of synthetic peptides derived from indicated proteins. (FIG. 3G) MST-isotherms of 100 nM Atto488-labelled K109R GRB2 mutant binding to titrating concentrations (30 nM to 200 μM) of synthetic peptides derived from the indicated proteins. Each isotherm was derived from the raw data and fitted according to the law of mass action to yield an apparent Kd. (FIG. 3H) Molecular docking overlay model of GRB2-SH2 domain with (PDB: 3wa4) and without (PDB: 1gri) showing S88 and S90 movement ˜4.7 Å when bound to phosphotyrosine peptide (PDB: 3wa4). K109R shown modeled, which could engage with the loop containing S88 and S90 residues. (FIG. 3I) Docking of pH2AX, MRE11 and pEGFR peptide into GRB2 SH2 domain pocket. The relative docking orientation of each peptide is shown.
(§3) Microscale thermophoresis. The MST method has been described in detail elsewhere (Seidel et al., 2013). The Kd values were measured using the Monolith NT.115 system (Nano Temper). Proteins were fluorescently labeled with Atto 488 according to the manufacturer's protocol. Labeling efficiency was determined to be 1:1 (protein:dye) by measuring the absorbance at 280 and 488 nm. A solution of peptides or proteins in 0.01 M HEPES (pH 7.4), 0.15 M NaCl and 0.005% v/v Surfactant P20 was serially diluted, typically from about 100 μM to 30 nM in the presence of 100 nM labeled protein. The samples were loaded into silica capillaries (Polymicro Technologies) after incubation at room temperature for 15 min. Measurements were performed at 22° C. using 20% LED power and 40% IR-laser power. Measurements were also carried out using 20% and 60% IR-laser power for comparison. Data analyses were performed using Nano Temper Analysis software using the Kd curve fitting function. Raw data were exported and fitting curves were generated using Prism 8 (GraphPad Software) for presentation.

K109R GRB2 mutant = molecular target: T3, K109R GRB2 mutant (Homo sapiens, UniProt P62993, K109R); assay: as above; settings: 100 nM Atto488-labelled K109R GRB2
T3 construct: 6xHis; made in house
T3 sequence (P62993 whole entry K109R): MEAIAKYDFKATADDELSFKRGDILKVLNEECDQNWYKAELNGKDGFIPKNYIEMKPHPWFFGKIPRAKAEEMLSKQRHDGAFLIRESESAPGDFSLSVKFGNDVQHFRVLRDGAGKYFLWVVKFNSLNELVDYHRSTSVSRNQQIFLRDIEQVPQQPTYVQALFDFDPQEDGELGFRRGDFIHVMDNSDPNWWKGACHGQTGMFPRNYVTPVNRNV
Text: as §2, §3

[2] = molecular target: T4, human MRE11 (residue 1-411) (Homo sapiens, UniProt P49959); assay: Microscale thermophoresis (MST) binding of GRB2 WT and mutants; settings: bacterially expressed proteins lacking ubiquitination
T4 construct: Human MRE11 core (residues 1-411) purification was described previously; 6xHis; made in house
T4 sequence (P49959 1-411): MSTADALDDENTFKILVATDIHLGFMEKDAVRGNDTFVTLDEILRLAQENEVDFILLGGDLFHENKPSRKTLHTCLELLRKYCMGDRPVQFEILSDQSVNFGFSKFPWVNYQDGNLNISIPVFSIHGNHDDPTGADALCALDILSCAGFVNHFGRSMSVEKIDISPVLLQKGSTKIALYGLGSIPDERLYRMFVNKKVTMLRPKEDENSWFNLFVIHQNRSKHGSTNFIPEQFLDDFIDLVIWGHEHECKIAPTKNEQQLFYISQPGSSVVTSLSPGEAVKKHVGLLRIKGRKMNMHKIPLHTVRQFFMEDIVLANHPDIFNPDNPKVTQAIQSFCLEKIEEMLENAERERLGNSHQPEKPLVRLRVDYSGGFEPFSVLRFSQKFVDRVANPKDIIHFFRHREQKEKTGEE
Text: FIGS. 2A-2H. Interactions of nGRB2 with DNA damage response factors. (FIG. 2A) Mass spectrometry identifies nuclear GRB2-associated proteins that are involved in DNA damage repair. Mean of coverage and unique peptides from three independent data sets are shown. (FIG. 2B) Strep-Tactin precipitation of Strep-GRB2 precipitated from HEK293T cells followed by western blotting with indicated antibodies. (FIG. 2C) GRB2 preferentially co-precipitate MRE11 without RAD50 or NBS1. Strep-GRB2 expressed HEK293T cells treated with or without 5 Gy IR were lysed immediately followed by Strep-Tactin precipitation and immunoblotting with indicated antibodies. (FIG. 2D) Immunoprecipitation of NBS1. HEK293T cells were co-transfected with RFP-GRB2 and GFP-NBS1 or GFP alone as control. Total cell lysates were precipitated with GFP-trap beads and immunoblotted with indicated antibodies. (FIG. 2E) Immunoprecipitation of RAD50. HEK293T cells expressing Flag-RAD50 or Flag-Ctrl were co-transfected with RFP-GRB2 for 24 h. Unperturbed cells were immunoprecipitated with Flag-M2 beads and immunoblotted with indicated antibodies. β-Actin was used as a loading control. (FIG. 2F) Immunoprecipitation of MRE11. […]
as §1

non-ubiquitinated GRB2: bacterially expressed and purified wild-type growth factor receptor-bound protein 2
binding to RPA70N [1]: direct binding

CC[C@H](C)[C@H](NC(=O)[C@H](Cc1ccc(OP(=O)(O)O)cc1)NC(=O)[C@H](CCC(=O)O)NC(=O)[C@@H]1CCCN1C(=O)[C@@H](NC(=O)[C@@H]1CCCN1C(=O)[C@H](CC(C)C)NC(=O)[C@@H](N)Cc1ccccc1)C(C)C)C(=O)N[C@@H](CC(N)=O)C(=O)N[C@@H](CCC(N)=O)C(=O)N[C@@H](CO)C(=O)N[C@H](C(=O)N1CCC[C@H]1C(=O)N[C@@H](CCCCN)C(=O)N[C@@H](CCCNC(=N)N)C(=O)O)C(C)C [pEGFR]
Kd (GRB2-SH2 domain): 7.2 ± 2 µM
binding affinity to K109R GRB2 relative to WT GRB2 (K109R GRB2 mutant): comparable to that of ^WTGRB2

C[C@H](NC(=O)[C@H](CCCCN)NC(=O)[C@H](CCCCN)NC(=O)CNC(=O)CNC(=O)[C@H](CO)NC(=O)[C@@H]1CCCN1)C(=O)N[C@H](C(=O)N[C@@H](CCC(N)=O)C(=O)N[C@@H](C)C(=O)N[C@@H](COP(=O)(O)O)C(=O)N[C@@H](CCC(N)=O)C(=O)N[C@@H](CCC(=O)O)C(=O)N[C@@H](Cc1ccc(OP(=O)(O)O)cc1)C(=O)O)[C@@H](C)O [pH2AX peptide]
Kd (GRB2-SH2 domain; MST, 100 nM Atto488-labelled GRB2-SH2 domain, read-out: Kd, binding to GRB2-SH2 domain): 2.8 ± 3.3 µM
binding affinity to K109R GRB2 relative to WT GRB2 (K109R GRB2 mutant): comparable to that of ^WTGRB2

KYDFKATADDELSFKRG
binding to RPA70N [1]: interacted with RPA70N

K109A mutant: ubiquitination-defective GRB2 K109A mutant, bacterially expressed
dissociation constant (Kd), interaction with MRE11 [2]: intact MRE11 binding

K109R mutant: GRB2 lysine-to-arginine mutant at K109, bacterially expressed
dissociation constant (Kd), interaction with MRE11 [2]: no binding

WVNpYQDGNLN (WVN[pY]QDGNLN)
effect of tyrosine phosphorylation on binding affinity for GRB2-SH2 domain (GRB2-SH2 domain; MST): limited impact on its binding affinity

CC(C)C[C@H](NC(=O)[C@H](CC(N)=O)NC(=O)CNC(=O)[C@H](CC(=O)O)NC(=O)[C@H](CCC(N)=O)NC(=O)[C@H](Cc1ccc(O)cc1)NC(=O)[C@H](CC(N)=O)NC(=O)[C@@H](NC(=O)[C@H](Cc1c[nH]c2ccccc12)NC(=O)[C@@H]1CCCN1)C(C)C)C(=O)N[C@@H](CC(N)=O)C(=O)O
binding affinity to K109R GRB2 relative to WT GRB2 (K109R GRB2 mutant): at least two orders of magnitude weaker
